Measured values taken from the supplement of paper PMC9170038.

Columns and labels:
[1] = test system: MS2 coat protein; assay: apparent KD of MS2 coat protein, switch ON state; designed switch direction (-1 OFF switch, 1 ON switch): 1; higher = weaker reporter binding; conditions: FMN input: 0 or 200 uM; Eterna round: R93 (includes R88 designs)
In short: (§1)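 With or without constant ligand, designed RNA switches in 100 mM Tris-HCl pH 7.5, 80 mM KCl and 4 mM MgCl2 were titrated with SNAP-549-labelled MS2 coat protein. Concentrations went up in twofold steps from 0.7 or 1.5 nM to 3 µM. The switches had been transcribed on-chip from Illumina sequencing clusters, and apparent KD is the per-design median of normalised cluster binding-curve fits.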

[2] = test system: MS2 coat protein; assay: apparent KD of MS2 coat protein, switch OFF state (with FMN for OFF switches, without FMN for ON switches); designed switch direction (-1 OFF switch, 1 ON switch): 1; higher = weaker reporter binding; conditions: FMN input: 0 or 200 uM; Eterna round: R93 (includes R88 designs)
In short: as §1

Sequence	apparent KD of MS2 coat protein [1]	apparent KD of MS2 coat protein [2]
AAAUAAAUGACUCAGGAUAUAUCAGAGAAAACAUGAGGAUCACCCAUGUAAUAAUAACAUGUGUGGUAGAAGGGAGUCAAUAAAU [LROPPY Same State 2 - v03_deltaG=2.1]	0.0135 µM	0.0493 µM
AAAUAAAUGACUCAGGAUAUAUCAUAGAAAACAUGAGGAUCACCCAUGUAAUAAUAACAUGUUUGGUAGAAGGGAGUCAAUAAAU [LROPPY Same State 2 - v04_deltaG=1.25]	0.0311 µM	0.0186 µM
AAAUAAAUGACUCAGGAUAUAUCAUAGGGUACAUGAGGAUCACCCAUGUUUUAAUAACAUGUUUGGUAGAAGGGAGUCAAUAAAU [LROPPY Same State 2 - v07_deltaG=1.69]	0.0851 µM	0.133 µM
AAAUAAAUGACUGAGGAUAUAUCGAUGAGUACAUGAGGAUCACCCAUGUGUUAAUAAAAAGGGUGGUAGAAGGUAGUCAACAAAC [Mod 15 of Pariah 4 by Hyphema in Round 1]	0.112 µM	0.0512 µM
AACAAUCUAUCUGAGGAUAUCAUGACAAAGACAUGAGGAUCACCCAUGUACCAGGAAACUGGUUAUGAGAAGGCAGAUAGAUUGA [SS2: 1117]	0.0115 µM	0.0188 µM
AACAGACAUGAGGAUCACCCAUGUAGAAUUAUGGGAGGAUAUACAAAGACGAGAGUCAGAGUAGAAGGCCUAGGAA [salish99-ss1-165]	0.022 µM	0.0897 µM
AACAUACAUGAGGAUCACCCAUGUUCCGGCAGGACAGGAUAUACAUCGAAAGUGUUAUAAGUAGAAGGGUCAUAAA [JR_SS001_Sub012]	0.0567 µM	0.0665 µM
AACCAACAUGAGGAUCACCCAUGUCAACCCAAGCGAGGAUAUCCGAGAAUAACAAUGGGAGGAGAAGGCGCGACCU [ss1]	0.0381 µM	0.039 µM
AACUAACAUGAGGAUCACCCAUGUAAUCAAACAUGAGGAUAUAUAACACAUCAUCAACAGAUAGAAGGCAUAAAUA [JR_SS001_Sub1203]	0.0804 µM	0.0627 µM
AAGAAACAUGAGGAUCACCCAUGUAAGAUUAUGGGAGGAUAUGCGAAAAGAAACAAAGAAGCAGAAGGCCUAAGAA [75%, Ex5 sub 1, 4]	0.0157 µM	0.0773 µM
AAGAAACAUGAGGAUCACCCAUGUAGAAACAUGGGAGGAUAUACAAAGACGAAAGUCAAAGUAGAAGGCCUAAAAA [Mat - Same State 1 - Mod - D165]	0.0886 µM	0.141 µM
AAGUCACAUGAGGAUCACCCAUGUCGUAAACGAUGAGGAUAUAGGAAAAAAAAAAAAAAACUAGAAGGUAUAACAA [SameState1-01]	0.035 µM	0.0385 µM
AAUAAACAUGAGGAUCACCCAUGUAGAAAUAUGGGAGGAUAUACAAAGACGAAAGUCAAAGUAGAAGGCCUAAUAA [Mat - Same State 1 - Mod - D153]	0.018 µM	0.0585 µM
AAUAAUUAUAUGGAGGAUAUCCGUAAUAAGACAUGAGGAUCACCCAUGUAAUAAGGUUAAAUAAAGGAGAAGGCCAAGGGUGAAA [JR_SS002_Sub004]	0.129 µM	0.344 µM
AAUACACAUGAGGAUCACCCAUGUAGAAAGAAGUCAGGAUAUCCGAUCCACAUGUGAUAAGGAGAAGGGACAAUAA [SS 1 Tesla 8]	0.0196 µM	0.0954 µM
AAUAUACAUGAGGAUCACCCAUGUUUUAAUAACUCAGGAUAUACGGGUGAAAACAGCAUAGUAGAAGGGAGAAAAA [SameState1 Malc#2]	0.044 µM	0.113 µM
AAUAUACAUGAGGAUCACCCAUGUUUUAAUAGCUGAGGAUAUACGGGUGAAAACAGCAUAGUAGAAGGCGGGUGUA [SameState1 Malc#8]	0.0996 µM	0.115 µM
AAUGAACAUGAGGAUCACCCAUGUUCUAAUAGUUGAGGAUAUAUGGGUGAAAAUAGCACAGUAGAAGGCGAGUGUA [SameState1 Malc#17]	0.408 µM	0.262 µM
AGAAAGAAAAGAGAGGAUAUCUAAAAGAAAACAUGAGGAUCACCCAUGUAAAAGAAAAGAAAAUGGGAGAAGGCUUAUGAGAAAG [JL Skelter Mod 8 In the Red]	0.107 µM	0.082 µM
AGAAAUAAAACACAGGAUAUCCAAAAUAAAACAUGAGGAUCACCCAUGUAAAGAAAAGAAAAAUGGGAGAAGGGUGAAAAUAAGA [Mat - Same State 2 - JL mod - D19]	0.0194 µM	0.0697 µM
AGAAAUAAAAGAGAGGAUAUGCAAAAGAUAACAUGAGGAUCACCCAUGUAAAAGAAAAUAAAUGGGUAGAAGGCUCAAAAUAAGA [Jieux modified]	0.0864 µM	0.0649 µM
AGAAAUAAAAGAGAGGAUAUUCAAAAAGGGACAUGAGGAUCACCCAUGUAAAAGAAAAUAAAAUGGGAGAAGGCUCUAAAUAAAG [80%, More Helter Skelter 2]	0.0866 µM	0.127 µM

Sequence	apparent KD of MS2 coat protein [1]	apparent KD of MS2 coat protein [2]
AGAAAUAAAGCGAAGGAUAUCCAAACCUAAACAUGAGGAUCACCCAUGUAAAAGAAAAUAAAAUGGGAGAAGGUCGCAAAUAAGA [Designing denovo 14]	0.0135 µM	0.0228 µM
AGAAGACAUGAGGAUCACCCAUGUGGGAUUAUGGGAGGAUAUACAAAGACGAGAGUCAGAGUAGAAGGCCUAGGAA [salish99-ss1-112(!!!!!)]	0.029 µM	0.0705 µM
AGAAUAAAAAGACAGGAUAUCCAAAAAAAAACAUGAGGAUCACCCAUGUAAAAAAAAUAAAAAUGGGAGAAGGGUCAAAAUAAGA [Mat - Same State 2 - JL mod - D64]	0.0199 µM	0.0359 µM
AGACAUAAAAGAGAGGAUAUCCAAAAGAAAACAUGAGGAUCACCCAUGUGAAAGAAAAUAAAAUGGGAGAAGGCUCACAUACAGA [Topaz 36]	0.0141 µM	0.0274 µM
AGCAUCACCAGUCAGGAUAUGUAGGCCUUGACAUGAGGAUCACCCAUGUGGACGAAACACCGGCCACAGAAGGGAUUGUAAAUAA [Ries]	0.434 µM	0.0674 µM
AGCGAACAUGAGGAUCACCCAUGUCCCGCGAAUCAAGGAUAUGGGCAGAUGAGUCCUGCGCCAGAAGGUGAGUAAA [Rigeesar]	0.0496 µM	0.132 µM
AGCGAACAUGAGGAUCACCCAUGUGAAAAACAUAGAGGAUAUGUCGCAUGAGUGUAAAAGACAGAAGGCUAUCGCA [Mod of Nando]	0.0388 µM	0.116 µM
AGGAAACAUGAGGAUCACCCAUGUAAAAAAUGGGUAGGAUAUGCGAAAAGAAAAAGAAAAGCAGAAGGGCCAAGAA [62%, Something completely different, 3]	0.046 µM	0.444 µM
AGGAAACAUGAGGAUCACCCAUGUAAGAUAAACACAGGAUAUGCGAAAAGAAACAAAGAAGCAGAAGGGUGGAGAA [75%, Ex5 sub 1, 3]	0.0194 µM	0.0251 µM
AGGAAACAUGAGGAUCACCCAUGUAUAAAAUAGGGAGGAUAUACUAAGACGAAAGUCAUAGUAGAAGGUCCAAAAA [76%, Meechl, 13]	0.0179 µM	0.0234 µM
AUAAAACAUGAGGAUCACCCAUGUAGAAAUAUGGGAGGAUAUACGAGGACGAAAGUCAAAGUAGAAGGCCUAAAAG [Mat - Same State 1 - Meechl mod - D120]	0.0227 µM	0.0406 µM
AUAAAACAUGAGGAUCACCCAUGUAGAAAUAUGGGAGGAUAUACUAGAUCGAAAGAUCUAGUAGAAGGCCUUUAAG [JL Mod of Eli 4]	0.0296 µM	0.0499 µM
AUAAAACAUGAGGAUCACCCAUGUAGAAAUAUGGGAGGAUAUACUAGAUCGAAAGAUCUAGUAGAAGGCCUUUAUA [JL Mod of Eli 6]	0.0199 µM	0.0459 µM
AUAAAACAUGAGGAUCACCCAUGUCAAGGCUAUCAAGGAUAUAGGAAGCGUAGCGGUUGACUAGAAGGUGAGAAAU [Ragexequ]	0.0669 µM	0.0524 µM
AUAAAAUAAAGUCAGGAUAUCUAUAAUAAAACAUGAGGAUCACCCAUGUUAAAAAAAAGAUCAUGGGAGAAGGGACAAAAUAAAU [SS2 M 32]	0.027 µM	0.0283 µM
AUAAUAAGAAGCUAGGAUAUGCUAAAGUAAACAUGAGGAUCACCCAUGUAAAGAAAAAAACUCAUGUAGAAGGAGCAGAAAUAAA [moonwalk 6]	0.0991 µM	0.106 µM
AUACGUACGUAUGAGGAUAUCCAUAAUAAGACAUGAGGAUCACCCAUGUAAACAAAACAAUAAUGGGAGAAGGCAUACGUACGAU [SS 2 M 50]	0.0477 µM	0.0548 µM
AUAUAUAUAAGGAAGGAUAUCUUAGAAAAAACAUGAGGAUCACCCAUGUAAAUAAAGAAUAAAUGGGAGAAGGUCCAUAUAUAUA [77%, More Tesla, 10]	0.0151 µM	0.109 µM
AUGAAUAGCAUCGAGGAUAUCCAGUCAUGAACAUGAGGAUCACCCAUGUAAGAGAGAGUAUAAUGGGAGAAGGCGAGUAAUCGAU [JR_SS002_Sub1703]	0.0403 µM	0.105 µM
AUUACAUAUAGUUAGGAUAUCAUAUGUAAGACAUGAGGAUCACCCAUGUCCUAAGAAUAGGUAAAUGAGAAGGAACAGUGAGUAU [JR_SS002_Sub419]	0.0171 µM	0.0239 µM
CCCAAUGCAACGAAGGAUAUCCGUCAUGCUACAUGAGGAUCACCCAUGUACUGGCAGCGCAAGGCGGAGAAGGUCGGGUGCUGUG [Leusesbe]	0.012 µM	0.0126 µM
